According to PMC3517414, “Complex Interplay between the Lipin 1 and the Hepatocyte Nuclear Factor 4 α (HNF4α) Pathways to Regulate Liver Lipid Metabolism” (PLoS ONE, 2012):

Target: T1, hepatocyte nuclear factor 4α (HNF4α) (human (endogenous in HepG2), UniProt P41235 1-474)
T1 sequence (looked up): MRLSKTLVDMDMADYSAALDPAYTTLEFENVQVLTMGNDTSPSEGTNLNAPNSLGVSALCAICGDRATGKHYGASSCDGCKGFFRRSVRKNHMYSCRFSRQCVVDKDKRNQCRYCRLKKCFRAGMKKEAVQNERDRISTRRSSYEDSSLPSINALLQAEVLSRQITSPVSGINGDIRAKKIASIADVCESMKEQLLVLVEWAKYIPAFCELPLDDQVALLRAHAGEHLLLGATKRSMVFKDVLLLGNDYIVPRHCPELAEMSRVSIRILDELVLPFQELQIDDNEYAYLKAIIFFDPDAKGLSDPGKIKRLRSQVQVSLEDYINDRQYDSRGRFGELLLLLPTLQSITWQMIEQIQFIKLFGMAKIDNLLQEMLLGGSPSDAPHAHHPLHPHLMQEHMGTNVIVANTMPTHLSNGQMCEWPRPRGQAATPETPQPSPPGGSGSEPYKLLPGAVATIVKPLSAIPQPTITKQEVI
Experiment: cell-based or functional assay

B1: lipin 1β (924 amino acid form of mouse lipin 1), HA-tagged (natural protein, UniProt Q91ZP3 1-924, looked up)
chain: MNYVGQLAGQVFVTVKELYKGLNPATLSGCIDIIVIRQPNGSLQCSPFHVRFGKMGVLRSREKVVDIEINGESVDLHMKLGDNGEAFFVQETDNDQEIIPMYLATSPILSEGAARMESQLKRNSVDRIRCLDPTTAAQGLPPSDTPSTGSLGKKRRKRRRKAQLDNLKRDDNVNSSEDEDMFPIEMSSDEDTAPMDGSRTLPNDVPPFQDDIPKENFPSISTHPQSASYPSSDREWSPSPSSLVDCQRTPPHLAEGVLSSSCPLQSCHFHASESPSGSRPSTPKSDSELVSKSADRLTPKNNLEMLWLWGELPQAAKSSSPHKMKESSPLGSRKTPDKMNFQAIHSESSDTFSDQSPTMARGLLIHQSKAQTEMQFVNEEDLESLGAAAPPSPVAEELKAPYPNTAQSSSKTDSPSRKKDKRSRHLGADGVYLDDLTDMDPEVAALYFPKNGDPGGLPKQASDNGARSANQSPQSVGGSGIDSGVESTSDSLRDLPSIAISLCGGLSDHREITKDAFLEQAVSYQQFADNPAIIDDPNLVVKVGNKYYNWTTAAPLLLAMQAFQKPLPKATVESIMRDKMPKKGGRWWFSWRGRNATIKEESKPEQCLTGKGHNTGEQPAQLGLATRIKHESSSSDEEHAAAKPSGSSHLSLLSNVSYKKTLRLTSEQLKSLKLKNGPNDVVFSVTTQYQGTCRCEGTIYLWNWDDKVIISDIDGTITRSDTLGHILPTLGKDWTHQGIAKLYHKVSQNGYKFLYCSARAIGMADMTRGYLHWVNERGTVLPQGPLLLSPSSLFSALHREVIEKKPEKFKVQCLTDIKNLFFPNTEPFYAAFGNRPADVYSYKQVGVSLNRIFTVNPKGELVQEHAKTNISSYVRLCEVVDHVFPLLKRSHSCDFPCSDTFSNFTFWREPLPPFENQDMHSASA
activity of a Gal4-HNF4α fusion on the UAS-TKLuc luciferase reporter in HepG2 cells with lipin 1 overexpression: > 3 fold
